In patent US20140105889A1 (published 2014):
Where a chain is given by its changes, count along the chain named. Names may count otherwise.

B1: antibody containing VH3-IgG1-F890 for the heavy chain and L(WT)-CK for the light chain (antibody)
heavy: QVQLQESGPGLVKPSETLSLTCAVSGHSISHDHAWSWVRQPPGEGLEWIGFISYSGITNYNPSLQGRVTISRDNSKNTLYLQMNSLRAEDTAVYYCARSLARTTAMDYWGEGTLVTVSSASTKGPSVFPLAPSSKSTSGGTAALGCLVKDYFPEPVTVSWNSGALTSGVHTFPAVLQSSGLYSLSSVVTVPSSSLGTQTYICNVNHKPSNTKVDKKVEPKSCDKTHTCPPCPAPELLGGPSVFLFPPKPKDTLYISRTPEVTCVVVDVSHEDPEVKFNWYVDGVEVHNAKTKPREEQYNSTYRVVSVLTVLHQDWLNGKEYKCKVSNKALPAPIEKTISKAKGQPREPQVYTLPPSRDELTKNQVSLTCLVKGFYPSDIAVEWESNGQPENNYKTTPPVLDSDGSFFLYSKLTVDKSRWQQGNVFSCSVMHEALHYHVTQKSLSLSP
light: not shown
B2: antibody containing VH3-IgG1-F938 for the heavy chain and L(WT)-CK for the light chain (antibody)
heavy: B1 heavy with L237K, S241K
light: not shown
B3: antibody containing VH3-IgG1-F939 for the heavy chain and L(WT)-CK for the light chain (antibody)
heavy: B1 heavy with L237R, S241K
light: not shown
B4: antibody containing VH3-IgG1-F947 for the heavy chain and L(WT)-CK for the light chain (antibody)
heavy: B1 heavy with T252V, T309Q, V310P, Q313A
light: not shown
B5: antibody containing VH3-IgG1-F1009 for the heavy chain and L(WT)-CK for the light chain (antibody)
heavy: B1 heavy with L237R, S241K, T252V, T309Q, V310P, Q313A
light: not shown
B6: antibody containing VH3-IgG1-F1315 for the heavy chain and L(WT)-CK for the light chain (antibody)
heavy: B1 heavy with G239K, S241K
light: not shown
B7: antibody containing VH3-IgG1-F1316 for the heavy chain and L(WT)-CK for the light chain (antibody)
heavy: B1 heavy with G239R, S241K
light: not shown
B8: antibody containing VH3-IgG1-F1317 for the heavy chain and L(WT)-CK for the light chain (antibody)
heavy: B1 heavy with S241K, P331K
light: not shown
B9: antibody containing VH3-IgG1-F1318 for the heavy chain and L(WT)-CK for the light chain (antibody)
heavy: B1 heavy with S241K, P331R
light: not shown
B10: antibody containing VH3-IgG1-F1325 for the heavy chain and L(WT)-CK for the light chain (antibody)
heavy: B1 heavy with L236A, L237A, N299A
light: not shown
B11: antibody containing VH3-IgG1-F1327 for the heavy chain and L(WT)-CK for the light chain (antibody)
heavy: B1 heavy with L236A, L237A, T252V, N299A, T309Q, V310P, Q313A
light: not shown
B12: antibody containing VH3-IgG1-F1333 for the heavy chain and L(WT)-CK for the light chain (antibody)
heavy: B1 heavy with L237R, G238R, S241K
light: not shown
B13: IL6R-BP191/IL6R-L (antibody, human IgG1)
heavy: B1 heavy with E235D, P240D, Y254M, H270D, P273G, K328A, A332K, Y436N, V438Y, K441E
light: DIQMTQSPSSLSASVGDRVTITCRASQDISSYLNWYQQKPGKAPKLLIYYTSRLHSGVPSRFSGSGSGTDFTFTISSLQPEDIATYYCQQGNTLPYTFGQGTKVEIK
notes: Anti-human IL-6 receptor human IgG1 variant; copies: 2 + 2
B14: IL6R-BP195/IL6R-L (antibody, human IgG1)
heavy: QVQLQESGPGLVKPSETLSLTCAVSGHSISHDHAWSWVRQPPGEGLEWIGFISYSGITNYNPSLQGRVTISRDNSKNTLYLQMNSLRAEDTAVYYCARSLARTTAMDYWGEGTLVTVSSASTKGPSVFPLAPSSKSTSGGTAALGCLVKDYFPEPVTVSWNSGALTSGVHTFPAVLQSSGLYSLSSVVTVPSSSLGTQTYICNVNHKPSNTKVDKKVEPKSCDKTHTCPPCPAPDYLGDDSVFLFPPKPKDTLMISRTPEVTCVVVDVSDEDGEVKFNWYVDGVEVHNAKTKPREEQDNSTYRVVSVLTVLHQDWLNGKEYKCKVSNAALPKPIEKTISKAKGQPREPQVYTLPPSRDELTKNQVSLTCLVKGFYPSDIAVEWESNGQPENNYKTTPPVLDSDGSFFLYSKLTVDKSRWQQGNVFSCSVMHEALHNHYTQESLSLSP
light: B13 light
notes: as for B13
B15: IL6R-BP196/IL6R-L (antibody, human IgG1)
heavy: B14 heavy with D235E, D239G, D298Y
light: B13 light
notes: as for B13
B16: IL6R-BP197/IL6R-L (antibody, human IgG1)
heavy: B14 heavy with A328D
light: B13 light
notes: as for B13
B17: IL6R-BP198/IL6R-L (antibody, human IgG1)
heavy: B14 heavy with D239G, D298Y
light: B13 light
notes: as for B13
B18: IL6R-BP199/IL6R-L (antibody, human IgG1)
heavy: B14 heavy with Y236L, D239G, D270H, G273P, D298Y, A328D, K332R
light: B13 light
notes: Anti-human IL-6 receptor human IgG1 variant; uncertain; copies: 2 + 2
B19: IL6R-BP087/IL6R-L (antibody, human IgG1)
heavy: B14 heavy with D235E, D239G, D270H, G273P, D298Y, A328K
light: B13 light
notes: copies: 2 + 2
B20: GpH7-B3 variant P329S / GpL16-k0 (antibody, human IgG1)
heavy: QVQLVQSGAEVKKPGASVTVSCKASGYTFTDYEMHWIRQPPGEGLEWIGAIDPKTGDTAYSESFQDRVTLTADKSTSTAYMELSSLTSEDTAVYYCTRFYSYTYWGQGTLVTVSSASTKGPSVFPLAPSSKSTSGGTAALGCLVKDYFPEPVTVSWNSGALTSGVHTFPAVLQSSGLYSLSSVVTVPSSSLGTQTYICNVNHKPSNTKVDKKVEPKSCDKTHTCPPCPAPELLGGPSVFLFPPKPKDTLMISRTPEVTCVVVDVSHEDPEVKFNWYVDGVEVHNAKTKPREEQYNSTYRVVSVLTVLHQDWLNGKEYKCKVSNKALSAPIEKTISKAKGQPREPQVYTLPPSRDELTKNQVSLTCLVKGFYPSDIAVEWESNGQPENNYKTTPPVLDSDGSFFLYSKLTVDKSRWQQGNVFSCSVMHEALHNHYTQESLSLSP
light: DIVMTQSPLSLPVTPGEPASISCQASESLVHSNRNTYLHWYLQKPGQSPQLLIYKVSNRFSGVPDRFSGSGSGTDFTLKISRVEAEDVGVYYCSQNTHVPPTFGQGTKVEIE
notes: Anti-glypican-3 IgG1; constant region B3 = G1d with K439E
B21: GpH7-B3 variant A330P / GpL16-k0 (antibody, human IgG1)
heavy: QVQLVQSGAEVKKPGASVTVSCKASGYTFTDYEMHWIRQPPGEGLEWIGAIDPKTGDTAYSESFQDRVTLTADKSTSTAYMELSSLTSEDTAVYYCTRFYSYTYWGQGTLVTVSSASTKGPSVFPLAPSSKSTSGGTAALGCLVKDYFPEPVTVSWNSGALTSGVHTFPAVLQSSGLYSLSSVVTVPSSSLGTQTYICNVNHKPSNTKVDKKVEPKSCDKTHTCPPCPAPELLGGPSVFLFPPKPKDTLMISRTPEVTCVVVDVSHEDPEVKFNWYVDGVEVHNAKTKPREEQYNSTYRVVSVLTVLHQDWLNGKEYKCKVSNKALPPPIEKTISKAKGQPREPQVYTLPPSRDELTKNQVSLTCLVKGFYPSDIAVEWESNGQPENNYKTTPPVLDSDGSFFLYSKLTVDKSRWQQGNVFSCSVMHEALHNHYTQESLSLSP
light: B20 light
notes: as for B20
B22: GpH7-B3 variant I332K / GpL16-k0 (antibody, human IgG1)
heavy: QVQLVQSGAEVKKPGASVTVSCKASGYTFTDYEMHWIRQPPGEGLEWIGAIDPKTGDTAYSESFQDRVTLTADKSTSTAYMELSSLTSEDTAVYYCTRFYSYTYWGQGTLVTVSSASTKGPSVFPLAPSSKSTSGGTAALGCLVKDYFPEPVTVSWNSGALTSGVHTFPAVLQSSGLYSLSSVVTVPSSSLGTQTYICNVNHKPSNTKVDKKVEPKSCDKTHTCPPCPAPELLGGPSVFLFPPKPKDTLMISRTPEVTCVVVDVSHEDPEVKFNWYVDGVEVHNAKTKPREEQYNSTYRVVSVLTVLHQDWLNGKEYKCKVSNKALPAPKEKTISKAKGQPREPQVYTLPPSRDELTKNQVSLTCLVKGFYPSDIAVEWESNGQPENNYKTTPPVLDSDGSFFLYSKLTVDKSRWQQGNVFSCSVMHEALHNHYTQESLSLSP
light: B20 light
notes: as for B20
B23: GpH7-B3 variant P331G / GpL16-k0 (antibody, human IgG1)
heavy: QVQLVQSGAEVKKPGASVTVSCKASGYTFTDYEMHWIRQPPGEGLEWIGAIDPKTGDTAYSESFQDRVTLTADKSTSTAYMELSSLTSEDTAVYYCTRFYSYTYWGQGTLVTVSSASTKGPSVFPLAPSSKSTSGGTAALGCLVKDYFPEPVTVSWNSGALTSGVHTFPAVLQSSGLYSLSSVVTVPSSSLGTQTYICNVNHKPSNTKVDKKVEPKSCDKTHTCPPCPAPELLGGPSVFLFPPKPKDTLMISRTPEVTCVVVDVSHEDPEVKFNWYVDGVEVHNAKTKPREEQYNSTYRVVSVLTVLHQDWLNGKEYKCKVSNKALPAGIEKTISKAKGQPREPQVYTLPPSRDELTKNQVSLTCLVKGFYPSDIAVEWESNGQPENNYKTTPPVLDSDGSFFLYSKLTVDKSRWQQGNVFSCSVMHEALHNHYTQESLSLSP
light: B20 light
notes: as for B20

The binders below were run against T1, human FcγRIIIa(F) (human, UniProt P08637 17-208, limits assumed) (assay: SPR (Biacore), antibody captured on Protein L, human FcgR as analyte, pH 7.4, 25 C; amount normalised to captured antibody).
T1 construct: also called hFcgRIIIa(F); allotype F158
T1 sequence (P08637 other isoform, or with tags, fused parts or gaps limits assumed): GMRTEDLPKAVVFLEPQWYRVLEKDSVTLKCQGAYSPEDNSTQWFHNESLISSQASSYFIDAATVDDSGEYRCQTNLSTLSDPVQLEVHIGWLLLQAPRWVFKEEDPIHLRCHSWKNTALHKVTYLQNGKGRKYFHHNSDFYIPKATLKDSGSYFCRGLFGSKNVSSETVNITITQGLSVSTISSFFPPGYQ
Method: Binding activity between the antibodies and human FcγRIa, FcγRIIa(H), FcγRIIa(R), FcγRIIb and FcγRIIIa(F) (hereinafter referred to as human FcγRs) was evaluated using the Biacore T100 or T200 (GE Healthcare). The antibodies being tested were captured by Protein L (ACTIGEN) that was immobilized in suitable amounts on the CM4 Sensor Chip (GE Healthcare) by amine coupling. Next, the diluted human FcγRs and a running buffer used as a blank were injected to allow interaction with the antibodies captured on the sensor chip. A buffer consisting of 20 mmol/L ACES, 150 mmol/L NaCl and 0.05% (w/v) Tween 20 (pH 7.4) was used for the running buffer, and this buffer was also used to dilute the human FcγRs. 10 mmol/L glycine-HCl (pH 1.5) was used to regenerate the sensor chip. All measurements were carried out at 25° C.
Binding activity to human FcγRs can be represented by the relative binding activity to human FcγRs. Antibody was captured by Protein L, and the amount of change in a sensorgram before and after the antibody was captured was defined as X1. Next, human FcγRs were allowed to interact with the antibody, and the value obtained by subtracting binding activity of human FcγRs represented as the amount of change in a sensorgram before and after allowing the running buffer to interact with antibody captured by Protein L (ΔA2) from the value obtained by multiplying by 1500 the value obtained by dividing the binding activity of human FcγRs represented as the amount of change in a sensorgram before and after that interaction (ΔA1) by the captured amount (X) of each antibody, was divided by the captured amount of each antibody (X) followed by multiplying by 1500 to obtain the binding activity of the human FcγRs (Y) (Equation 2).

Binder	BINDING AMOUNT (RU)
B1	63.5 RU
B2	-0.34 RU
B3	0.51 RU
B4	105 RU
B5	-0.68 RU
B6	-0.33 RU
B7	-0.26 RU
B8	-0.94 RU
B9	-1.03 RU
B10	-0.54 RU
B11	-1.85 RU
B12	-1.01 RU

The binders below were run against T2, human FcγRIIb (human, UniProt P31994 43-217) (assay: SPR (Biacore); KD of parent IL6R-B3/IL6R-L for FcγRIIb divided by KD of the variant for FcγRIIb).
T2 construct: also called FcγIIB
T2 sequence: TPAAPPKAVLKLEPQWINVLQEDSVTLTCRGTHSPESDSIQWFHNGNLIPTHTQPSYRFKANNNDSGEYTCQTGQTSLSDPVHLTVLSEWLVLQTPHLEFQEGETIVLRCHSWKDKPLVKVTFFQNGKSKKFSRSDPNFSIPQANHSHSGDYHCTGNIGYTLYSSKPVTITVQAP
From the text: (§1) Furthermore, KD(IIaR)/KD(IIb) and KD(IIaH)/KD(IIb) in the table respectively represent the value obtained by dividing the KD value of each variant for FcγRIIaR by the KD value of each variant for FcγRIIb, and the value obtained by dividing the KD value of each variant for FcγRIIaH by the KD value of each variant for FcγRIIb.

Binder	KD(IIb) of the parent polypeptide/KD(IIb) of the altered polypeptide
B13	21.2
B14	82
B15	13.9
B16	53.7
B17	15.7
B18	6.3

What follows are binders tested against T3, human FcγRIIIa type V (allotype V158) (human, UniProt P08637 17-208, limits assumed) (assay: SPR (Biacore), antibody captured on the chip, FcγR as analyte).
T3 construct: the assay used allotype V158; also called FcγRIIIaV; FcγRIIIa(V)
T3 sequence (P08637 other isoform, or with tags, fused parts or gaps limits assumed): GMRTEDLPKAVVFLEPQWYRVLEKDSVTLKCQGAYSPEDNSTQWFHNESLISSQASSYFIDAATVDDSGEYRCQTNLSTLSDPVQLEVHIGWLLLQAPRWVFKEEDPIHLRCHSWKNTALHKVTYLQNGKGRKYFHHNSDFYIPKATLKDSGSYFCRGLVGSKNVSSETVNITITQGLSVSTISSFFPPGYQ

Binder	Kd
B13	49 µM
B14	31 µM
B15	51 µM
B16	33 µM
B17	44 µM
B18	61 µM

Each binder was assayed against T4, human FcγRIIb (human, UniProt P31994 43-217, limits assumed) (assay: ratio of this variant's SPR KD for FcγRIIaH to its KD for FcγRIIb).
T4 construct: also called FcγIIB; hFcgRIIb
T4 sequence: T2 sequence
From the text: as §1

Binder	KD (IIaH)/KD (IIb)
B19	34.7

These binders were tested against T5, human FcγRIIb (human, UniProt P31994 43-217, limits assumed) (assay: SPR (Biacore), antibody captured on chip, FcγR as analyte, HBS-EP+, 25°C;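 further: FcγR binding response divided by the amount of captured antibody, then expressed relative to the reference antibody ×100, with antibodies captured via immobilized Protein A, A/G, L or antigen peptides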).
T5 construct: Analyte in solution on Biacore; also called FcgRIIb; hFcgRIIb
T5 sequence: T2 sequence
Method: (§2) Interaction between each modified antibody and Fcγ receptor prepared in the manner described above was analyzed using the Biacore T100 (GE Healthcare), Biacore T200 (GE Healthcare), Biacore A100 or Biacore 4000. HBS-EP+ (GE Healthcare) was used for the running buffer, and measurements were carried out at 25° C. The chips used were chips in which antigen peptides, Protein A (Thermo Scientific), Protein A/G (Thermo Scientific) or Protein L (ACTIGEN or BioVision) were immobilized on the Series S Sensor Chip CM5 (GE Healthcare) or Series S Sensor Chip CM4 (GE Healthcare) by amine coupling, or chips in which preliminarily biotinylated antigen peptides were allowed to interact and then immobilized on the Series S Sensor Chip SA (certified) (GE Healthcare). The target antibodies were captured on these sensor chips, Fcγ receptor diluted with the running buffer was allowed to interact, followed by measurement of the amount of bound antibody. The amounts bound were compared between antibodies. However, since the amount of Fcγ receptor bound depends on the amount of captured antibody, the values used for comparison were first corrected by dividing the amount of Fcγ receptor bound by the captured amount of each antibody. Through reaction with 10 mM glycine-HCl at pH 1.5, the sensor chips were regenerated by washing off antibody captured on the sensor chips and used repeatedly.
(§3) Binding strength was evaluated according to the following method based on the results of analyzing the interaction with each FcγR. […] That value was then further multiplied by 100, and the resulting value was used as an indicator of relative binding activity to each FcγR.

Binder	relative binding activity (% of GpH7-B3/GpL16-k0)
B20	-1%
B21	39%
B22	27%

These binders were tested against T6, human FcγRIa (human, UniProt P12314 16-292, limits assumed) in the same assay as above.
T6 construct: Analyte in solution on Biacore; also called FcgRIa; hFcgRIa
T6 sequence (P12314 16-292 limits assumed): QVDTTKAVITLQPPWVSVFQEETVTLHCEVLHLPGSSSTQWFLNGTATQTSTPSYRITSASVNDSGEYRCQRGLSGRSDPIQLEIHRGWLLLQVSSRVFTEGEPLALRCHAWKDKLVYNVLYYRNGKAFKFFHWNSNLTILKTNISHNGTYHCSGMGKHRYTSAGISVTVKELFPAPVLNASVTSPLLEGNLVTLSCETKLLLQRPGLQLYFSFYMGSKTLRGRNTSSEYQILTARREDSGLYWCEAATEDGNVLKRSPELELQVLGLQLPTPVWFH
Method: as §2, §3

Binder	relative binding activity (% of GpH7-B3/GpL16-k0)
B20	60%
B21	87%
B22	77%
B23	88%

The binders below were run against T7, human FcγRIIIa(F) (human, UniProt P08637 17-208, limits assumed) in the same assay as above.
T7 construct: also called FcgRIIIaF; hFcgRIIIa(F)
Method: as §2, §3

Binder	relative binding activity (% of GpH7-B3/GpL16-k0)
B20	1%
B21	56%

Each binder was assayed against T8, human FcγRIIa(H) (human, UniProt P12318 36-217) in the same assay as above.
T8 construct: Analyte in solution on Biacore; also called FcγRIIa type H; FcgRIIaH
T8 sequence: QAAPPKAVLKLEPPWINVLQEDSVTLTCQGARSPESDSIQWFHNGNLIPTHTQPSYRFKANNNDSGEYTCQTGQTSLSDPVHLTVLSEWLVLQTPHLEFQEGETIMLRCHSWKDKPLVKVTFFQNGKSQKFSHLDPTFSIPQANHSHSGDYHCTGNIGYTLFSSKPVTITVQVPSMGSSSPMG
Method: as §2, §3

Binder	relative binding activity (% of GpH7-B3/GpL16-k0)
B20	1%
B21	25%
B22	59%

Molecular target: T9, human FcγRIIa(R) (human, UniProt P12318 36-217)
T9 construct: Analyte in solution on Biacore; also called FcγRIIa type R; FcgRIIaR
T9 chain: T8 sequence with H133R
Test: as above
Method: as §2, §3

Binder	relative binding activity (% of GpH7-B3/GpL16-k0)
B20	0%
B21	42%
B22	12%
B23	13%
